What was measured:
human CD47 = molecular target: T1, human CD47 (human, UniProt Q08722 19-323); assay: SPR; Biacore T200; SIRPαFc or CBD–SIRPαFc caught on a CM5 chip activated by EDC-NHS; human CD47 in six concentrations flowed over; conditions: both partners purified
T1 construct: CD47, human, in solution as the analyte of Biacore

collagen type I = molecular target: T2, collagen type I (UniProt P02454 152-1207; P02466 86-1125); assay: ELISA; 96-well plate coated with 100 μg/ml collagen type I or 2% BSA at 4°C overnight, blocked with 2% BSA in PBS-T; SIRPαFc or CBD–SIRPαFc in five concentrations, 37°C, 2 h; detected with HRP anti-human IgG1 Fc antibody; KD by non-linear regression (one-site specific binding); conditions: both partners purified
T2 construct: collagen type I, alpha 1 chain; collagen type I, alpha 2 chain; also called collagen I; source: bought: Corning
T2 sequence (P02454 152-1207, chain 1 of 2): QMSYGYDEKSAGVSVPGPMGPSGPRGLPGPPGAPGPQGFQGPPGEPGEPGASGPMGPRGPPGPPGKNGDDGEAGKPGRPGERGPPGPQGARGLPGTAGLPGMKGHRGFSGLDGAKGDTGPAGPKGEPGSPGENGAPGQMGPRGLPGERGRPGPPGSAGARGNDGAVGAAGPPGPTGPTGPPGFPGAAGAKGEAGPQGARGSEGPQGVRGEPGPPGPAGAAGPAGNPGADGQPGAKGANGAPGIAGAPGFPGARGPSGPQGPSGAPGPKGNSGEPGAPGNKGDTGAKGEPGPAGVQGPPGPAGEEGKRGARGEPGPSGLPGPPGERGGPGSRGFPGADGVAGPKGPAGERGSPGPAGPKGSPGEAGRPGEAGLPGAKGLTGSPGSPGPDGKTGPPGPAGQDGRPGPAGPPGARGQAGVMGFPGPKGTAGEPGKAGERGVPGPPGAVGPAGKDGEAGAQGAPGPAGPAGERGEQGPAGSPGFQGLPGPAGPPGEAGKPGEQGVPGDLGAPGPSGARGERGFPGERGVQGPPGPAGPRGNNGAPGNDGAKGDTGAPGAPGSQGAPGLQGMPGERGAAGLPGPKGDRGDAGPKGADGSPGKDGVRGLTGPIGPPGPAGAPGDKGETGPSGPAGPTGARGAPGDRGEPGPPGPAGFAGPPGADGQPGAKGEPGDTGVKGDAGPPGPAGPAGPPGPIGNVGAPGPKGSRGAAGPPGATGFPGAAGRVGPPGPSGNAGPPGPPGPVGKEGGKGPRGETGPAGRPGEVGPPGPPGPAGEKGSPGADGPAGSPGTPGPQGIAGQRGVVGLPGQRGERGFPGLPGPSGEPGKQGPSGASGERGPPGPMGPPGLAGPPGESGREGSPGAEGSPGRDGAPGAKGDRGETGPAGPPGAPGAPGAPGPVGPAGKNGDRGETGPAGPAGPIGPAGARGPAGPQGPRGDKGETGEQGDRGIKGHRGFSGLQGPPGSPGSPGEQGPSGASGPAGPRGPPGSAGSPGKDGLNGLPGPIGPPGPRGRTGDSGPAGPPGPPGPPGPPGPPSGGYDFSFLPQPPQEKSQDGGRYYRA
T2 sequence (P02466 86-1125, chain 2 of 2): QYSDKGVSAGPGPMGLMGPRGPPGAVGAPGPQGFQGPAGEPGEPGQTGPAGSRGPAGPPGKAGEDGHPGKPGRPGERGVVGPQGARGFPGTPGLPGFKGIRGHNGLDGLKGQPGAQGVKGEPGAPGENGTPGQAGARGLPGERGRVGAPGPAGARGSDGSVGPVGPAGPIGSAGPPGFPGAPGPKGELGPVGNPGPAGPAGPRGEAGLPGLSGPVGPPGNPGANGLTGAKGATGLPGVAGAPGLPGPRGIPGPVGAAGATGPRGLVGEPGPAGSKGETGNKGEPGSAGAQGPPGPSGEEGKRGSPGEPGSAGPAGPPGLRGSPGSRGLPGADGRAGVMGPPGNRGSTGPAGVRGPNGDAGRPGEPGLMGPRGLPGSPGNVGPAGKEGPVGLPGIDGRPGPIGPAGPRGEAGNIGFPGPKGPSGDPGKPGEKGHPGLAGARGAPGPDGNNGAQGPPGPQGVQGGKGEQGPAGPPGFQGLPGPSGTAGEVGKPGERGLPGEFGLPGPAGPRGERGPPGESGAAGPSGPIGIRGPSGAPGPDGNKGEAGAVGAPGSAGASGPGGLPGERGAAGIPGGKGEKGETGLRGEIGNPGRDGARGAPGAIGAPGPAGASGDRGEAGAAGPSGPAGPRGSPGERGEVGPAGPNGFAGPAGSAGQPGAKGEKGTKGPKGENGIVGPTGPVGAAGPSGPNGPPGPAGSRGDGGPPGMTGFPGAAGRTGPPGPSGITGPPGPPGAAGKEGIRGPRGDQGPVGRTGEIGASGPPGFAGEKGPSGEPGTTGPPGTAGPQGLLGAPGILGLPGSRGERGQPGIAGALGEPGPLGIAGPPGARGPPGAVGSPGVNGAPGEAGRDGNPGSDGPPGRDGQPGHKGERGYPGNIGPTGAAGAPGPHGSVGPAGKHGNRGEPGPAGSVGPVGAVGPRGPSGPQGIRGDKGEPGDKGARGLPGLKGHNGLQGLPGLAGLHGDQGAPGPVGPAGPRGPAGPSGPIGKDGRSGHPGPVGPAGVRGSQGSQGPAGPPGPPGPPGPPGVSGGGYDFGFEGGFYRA

T1 sequence (Q08722 19-323): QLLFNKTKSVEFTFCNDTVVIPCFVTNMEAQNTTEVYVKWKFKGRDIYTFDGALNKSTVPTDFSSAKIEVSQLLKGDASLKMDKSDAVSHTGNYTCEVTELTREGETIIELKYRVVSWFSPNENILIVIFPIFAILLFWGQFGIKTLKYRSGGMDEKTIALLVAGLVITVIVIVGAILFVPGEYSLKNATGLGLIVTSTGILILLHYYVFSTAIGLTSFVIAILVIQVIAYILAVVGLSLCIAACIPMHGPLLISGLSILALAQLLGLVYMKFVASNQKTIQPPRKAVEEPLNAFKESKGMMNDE

Kd (human CD47) [nM]	Kd (collagen type I) [nM]	Binder
1.44	180	TKKTLRT–SIRPαFc conjugate (Fc fusion, free amino groups joined through Sulfo-SMCC to the cysteine of the peptide TKKTLRTC; one or two peptides on one SIRPαFc (MALDI-TOF-MS); sites not told | sulfhydryl of the C-terminal cysteine joined to the maleimide group of Sulfo-SMCC) chain 1: EEELQVIQPDKSVLVAAGETATLRCTATSLIPVGPIQWFRGAGPGRELIYNQKEGHFPRVTTVSDLTKRNNMDFSIRIGNITPADAGTYYCVKFRKGSPDDVEFKSG chain 2: TKKTLRTC
3.3	–	human SIRPαFc fusion protein (Fc fusion) EEELQVIQPDKSVLVAAGETATLRCTATSLIPVGPIQWFRGAGPGRELIYNQKEGHFPRVTTVSDLTKRNNMDFSIRIGNITPADAGTYYCVKFRKGSPDDVEFKSG

Reference: publication PMC9002095, “A SIRPαFc Fusion Protein Conjugated With the Collagen-Binding Domain for Targeted Immunotherapy of Non-Small Cell Lung Cancer” (Frontiers in Immunology, 2022)
